± gives the uncertainty stated by the source.
B1: Ankyrin repeat and SAM domain-containing protein 6, residues 774 to 836; numbered along this chain, Q68DC2 (parent)
chain: DEDELTGILKKLSLEKYQPIFEEQEVDMEAFLTLTDGDLKELGIKTDGSRQQILAAISELNAG

Variants of: B1
Assay: abundance fitness (aPCA) (normalised: wild type 0, dead -1); higher = more abundant; growth selection in yeast, the domain comes from the species named
Settings: Homo sapiens

| Variant | abundance fitness |
| --- | --- |
| DEDELTGILKKLSLEKYQPIFYEQEVDMEAFLTLTDGDLKELGIKTDGSRQQILAAISELNAG [E22Y] | -0.231 ± 0.075 |
| DEDELTGILKKLSLEKYQPIFLEQEVDMEAFLTLTDGDLKELGIKTDGSRQQILAAISELNAG [E22L] | -0.179 ± 0.045 |
| DEDELTGILKKLSLEKYQPIFSEQEVDMEAFLTLTDGDLKELGIKTDGSRQQILAAISELNAG [E22S] | -0.059 ± 0.046 |
| DEDELTGILKKLSLEKYQPIFFEQEVDMEAFLTLTDGDLKELGIKTDGSRQQILAAISELNAG [E22F] | -0.402 ± 0.074 |
| DEDELTGILKKLSLEKYQPIFHEQEVDMEAFLTLTDGDLKELGIKTDGSRQQILAAISELNAG [E22H] | -0.394 ± 0.094 |
| DEDELTGILKKLSLEKYQPIFTEQEVDMEAFLTLTDGDLKELGIKTDGSRQQILAAISELNAG [E22T] | -0.093 ± 0.054 |
| DEDELTGILKKLSLEKYQPIFMEQEVDMEAFLTLTDGDLKELGIKTDGSRQQILAAISELNAG [E22M] | -0.091 ± 0.072 |
| DEDELTGILKKLSLEKYQPIFGEQEVDMEAFLTLTDGDLKELGIKTDGSRQQILAAISELNAG [E22G] | -0.388 ± 0.054 |
| DEDELTGILKKLSLEKYQPIFWEQEVDMEAFLTLTDGDLKELGIKTDGSRQQILAAISELNAG [E22W] | -0.743 ± 0.068 |
| DEDELTGILKKLSLEKYQPIFCEQEVDMEAFLTLTDGDLKELGIKTDGSRQQILAAISELNAG [E22C] | -0.299 ± 0.072 |
| DEDELTGILKKLSLEKYQPIFVEQEVDMEAFLTLTDGDLKELGIKTDGSRQQILAAISELNAG [E22V] | -0.256 ± 0.048 |
| DEDELTGILKKLSLEKYQPIFIEQEVDMEAFLTLTDGDLKELGIKTDGSRQQILAAISELNAG [E22I] | -0.854 ± 0.36 |
| DEDELTGILKKLSLEKYQPIFDEQEVDMEAFLTLTDGDLKELGIKTDGSRQQILAAISELNAG [E22D] | -0.149 ± 0.072 |
| DEDELTGILKKLSLEKYQPIFKEQEVDMEAFLTLTDGDLKELGIKTDGSRQQILAAISELNAG [E22K] | -0.103 ± 0.052 |
| DEDELTGILKKLSLEKYQPIFQEQEVDMEAFLTLTDGDLKELGIKTDGSRQQILAAISELNAG [E22Q] | -0.104 ± 0.063 |
| DEDELTGILKKLSLEKYQPIFAEQEVDMEAFLTLTDGDLKELGIKTDGSRQQILAAISELNAG [E22A] | -0.107 ± 0.04 |
| DEDELTGILKKLSLEKYQPISEEQEVDMEAFLTLTDGDLKELGIKTDGSRQQILAAISELNAG [F21S] | -0.615 ± 0.06 |
| DEDELTGILKKLSLEKYQPIPEEQEVDMEAFLTLTDGDLKELGIKTDGSRQQILAAISELNAG [F21P] | -0.65 ± 0.098 |
| DEDELTGILKKLSLEKYQPIHEEQEVDMEAFLTLTDGDLKELGIKTDGSRQQILAAISELNAG [F21H] | -0.629 ± 0.058 |
| DEDELTGILKKLSLEKYQPITEEQEVDMEAFLTLTDGDLKELGIKTDGSRQQILAAISELNAG [F21T] | -0.589 ± 0.081 |
| DEDELTGILKKLSLEKYQPIAEEQEVDMEAFLTLTDGDLKELGIKTDGSRQQILAAISELNAG [F21A] | -0.348 ± 0.058 |
| DEDELTGILKKLSLEKYQPIREEQEVDMEAFLTLTDGDLKELGIKTDGSRQQILAAISELNAG [F21R] | -0.609 ± 0.049 |

| Variant | abundance fitness |
| --- | --- |
| DEDELTGILKKLSLEKYQPIMEEQEVDMEAFLTLTDGDLKELGIKTDGSRQQILAAISELNAG [F21M] | -0.372 ± 0.077 |
| DEDELTGILKKLSLEKYQPINEEQEVDMEAFLTLTDGDLKELGIKTDGSRQQILAAISELNAG [F21N] | -0.553 ± 0.16 |
| DEDELTGILKKLSLEKYQPIWEEQEVDMEAFLTLTDGDLKELGIKTDGSRQQILAAISELNAG [F21W] | -0.847 ± 0.096 |
| DEDELTGILKKLSLEKYQPILEEQEVDMEAFLTLTDGDLKELGIKTDGSRQQILAAISELNAG [F21L] | -0.222 ± 0.048 |
| DEDELTGILKKLSLEKYQPIIEEQEVDMEAFLTLTDGDLKELGIKTDGSRQQILAAISELNAG [F21I] | -0.615 ± 0.17 |
| DEDELTGILKKLSLEKYQPIKEEQEVDMEAFLTLTDGDLKELGIKTDGSRQQILAAISELNAG [F21K] | -0.556 ± 0.082 |
| DEDELTGILKKLSLEKYQPIVEEQEVDMEAFLTLTDGDLKELGIKTDGSRQQILAAISELNAG [F21V] | -0.595 ± 0.095 |
| DEDELTGILKKLSLEKYQPIEEEQEVDMEAFLTLTDGDLKELGIKTDGSRQQILAAISELNAG [F21E] | -0.36 ± 0.092 |
| DEDELTGILKKLSLEKYQPIGEEQEVDMEAFLTLTDGDLKELGIKTDGSRQQILAAISELNAG [F21G] | -0.579 ± 0.079 |
| DEDELTGILKKLSLEKYQPICEEQEVDMEAFLTLTDGDLKELGIKTDGSRQQILAAISELNAG [F21C] | -0.697 ± 0.2 |
| DEDELTGILKKLSLEKYQPIFEMQEVDMEAFLTLTDGDLKELGIKTDGSRQQILAAISELNAG [E23M] | -0.318 ± 0.067 |
| DEDELTGILKKLSLEKYQPIFELQEVDMEAFLTLTDGDLKELGIKTDGSRQQILAAISELNAG [E23L] | -0.419 ± 0.039 |
| DEDELTGILKKLSLEKYQPIFEIQEVDMEAFLTLTDGDLKELGIKTDGSRQQILAAISELNAG [E23I] | -0.317 ± 0.083 |
| DEDELTGILKKLSLEKYQPIFEPQEVDMEAFLTLTDGDLKELGIKTDGSRQQILAAISELNAG [E23P] | -0.95 ± 0.086 |
| DEDELTGILKKLSLEKYQPIFEDQEVDMEAFLTLTDGDLKELGIKTDGSRQQILAAISELNAG [E23D] | -0.155 ± 0.085 |
| DEDELTGILKKLSLEKYQPIFEKQEVDMEAFLTLTDGDLKELGIKTDGSRQQILAAISELNAG [E23K] | -0.085 ± 0.1 |
| DEDELTGILKKLSLEKYQPIFEGQEVDMEAFLTLTDGDLKELGIKTDGSRQQILAAISELNAG [E23G] | -0.229 ± 0.062 |
| DEDELTGILKKLSLEKYQPIFEAQEVDMEAFLTLTDGDLKELGIKTDGSRQQILAAISELNAG [E23A] | -0.062 ± 0.051 |
| DEDELTGILKKLSLEKYQPIFEHQEVDMEAFLTLTDGDLKELGIKTDGSRQQILAAISELNAG [E23H] | -0.429 ± 0.13 |
| DEDELTGILKKLSLEKYQPIFECQEVDMEAFLTLTDGDLKELGIKTDGSRQQILAAISELNAG [E23C] | -0.409 ± 0.062 |
| DEDELTGILKKLSLEKYQPIFENQEVDMEAFLTLTDGDLKELGIKTDGSRQQILAAISELNAG [E23N] | -0.165 ± 0.068 |
